{"source": "patent US20210163584A1", "about": "(Sanofi, published 2021)", "key": {"[1]": {"target": "T1, TGF-β1 (UniProt P01137 279-390)", "T1 sequence (P01137 279-390 limits assumed)": "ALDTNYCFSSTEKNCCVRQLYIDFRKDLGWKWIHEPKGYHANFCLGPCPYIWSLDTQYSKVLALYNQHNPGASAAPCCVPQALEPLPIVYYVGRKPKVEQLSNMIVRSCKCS", "experiment": "cell-based or functional assay"}, "[2]": {"target": "T1, TGF-β1", "experiment": "cell-based or functional assay", "remark": "listed apart in the source"}, "[3]": {"target": "T1, TGF-β1", "experiment": "SPR (Biacore); amine-coupled TGF-β1 on chip, antibody as analyte, kinetic fit", "excerpt": "Recombinant mAb1-D10 fusion variants of Example 7 were also quantitatively assessed for TGF-β1 binding using surface plasmon resonance (SPR) as detected by Biacore. Samples containing purified variants were passed over a sensor chip with amine-coupled TGF-β1 to determine the equilibrium constant, KD. A target immobilization level of less than 100 response units (RU) of TGF-β1 was chosen to minimize the potential for avidity effects arising from binding adjacent TGF-β1 molecules on the chip. The level of immobilization was determined by the change in response units after NHS/EDC activation of the chip surface, but before quenching with ethanolamine. The fusion variants, WT fusion variant F1, and mAb1 control were diluted to 30, 10, 3, 1 and 0.37 nM in HBS-EP buffer and passed over the TGF-β1 chip at 30 μL/min for 3 min, followed by 5 min dissociation in the same buffer. Between runs, the chip surface was regenerated to remove any bound antibody by passing two 30 sec injections of 40 mM HCl over the chip at a flow rate of 75 μL/min. […] Unexpectedly, the maximum signal (RU) elicited by the fusion variants decreased with increasing number of peptides, with variant F17 (D10-HC-D10/D10-LC, PAR=6) showing the lowest signal. […] A possible explanation of this decline may reflect electrostatic repulsion between the chip matrix (carboxymethyl dextran) and the negatively charged D10 peptides."}, "[4]": {"target": "T1, TGF-β1", "experiment": "cell-based or functional assay", "remark": "listed apart in the source"}, "[5]": {"target": "T1, TGF-β1", "experiment": "cell-based or functional assay", "remark": "listed apart in the source"}}, "note": "Where two headings read alike, the source gives them in different places.", "data": [{"binder": "mAb1-D10 conjugate (PAR=9) (antibody, mouse IgG1, kappa, Ac-D10-C2-PEG12-C6-maleimide possibly on a light chain cysteine; Ac-D10-C2-PEG12-C6-maleimide on reduced hinge region cysteines; average 9 peptides per antibody (heavy and light chains together)) heavy: HVQLQQSGPELVRPGASVKLSCKASGYIFITYWMNWVKQRPGQGLEWIGQIFPASGSTNYNEMFEGKATLTVDTSSSTAYMQLSSLTSEDSAVYYCARGDGNYALDAMDYWGQGTSVTVSSAKTTPPSVYPLAPGSAAQTNSMVTLGCLVKGYFPEPVTVTWNSGSLSSGVHTFPAVLQSDLYTLSSSVTVPSSTWPSQTVTCNVAHPASSTKVDKKIVPRDCGCKPCICTVPEVSSVFIFPPKPKDVLTITLTPKVTCVVVDISKDDPEVQFSWFVDDVEVHTAQTKPREEQFNSTFRSVSELPIMHQDWLNGKEFKCRVNSAAFPAPIEKTISKTKGRPKAPQVYTIPPPKEQMAKDKVSLTCMITDFFPEDITVEWQWNGQPAENYKNTQPIMDTDGSYFVYSKLNVQKSNWEAGNTFTCSVLHEGLHNHHTEKSLSHSPGK light: NIVLTQSPASLAVSLGQRATISCRASESVDSYGNSFMHWYQQKSGQPPKLLIYLASNLESGVPARFSGSGSRTDFTLTIDPVEADDAATYYCQQNNEDPLTFGAGTKLELKRADAAPTVSIFPPSSEQLTSGGASVVCFLNNFYPKDINVKWKIDGSERQNGVLNSWTDQDSKDSTYSMSSTLTLTKDEYERHNSYTCEATHKTSTSPIVKSFNRNEC", "values": [{"measurement": "half-maximal inhibition of IL-11 release (EC50), A549 cells", "setting": "[1]", "value": "~0.1", "unit": "nM"}, {"measurement": "IC50 (read off the curve); IL-11 release by A549 cells in response to TGF-β1", "setting": "[2]", "value": "~0.04", "unit": "nM"}]}, {"binder": "mAb1 (mouse IgG1 anti-TGFβ monoclonal antibody, R&D Systems Clone #1D11) (antibody, Mouse IgG1, pan-specific anti-TGFβ; bought antibody used as control; also called unmodified mAb; mAb1 control) heavy: HVQLQQSGPELVRPGASVKLSCKASGYIFITYWMNWVKQRPGQGLEWIGQIFPASGSTNYNEMFEGKATLTVDTSSSTAYMQLSSLTSEDSAVYYCARGDGNYALDAMDYWGQGTSVTVSSAKTTPPSVYPLAPGSAAQTNSMVTLGCLVKGYFPEPVTVTWNSGSLSSGVHTFPAVLQSDLYTLSSSVTVPSSTWPSQTVTCNVAHPASSTKVDKKIVPRDCGCKPCICTVPEVSSVFIFPPKPKDVLTITLTPKVTCVVVDISKDDPEVQFSWFVDDVEVHTAQTKPREEQFNSTFRSVSELPIMHQDWLNGKEFKCRVNSAAFPAPIEKTISKTKGRPKAPQVYTIPPPKEQMAKDKVSLTCMITDFFPEDITVEWQWNGQPAENYKNTQPIMDTDGSYFVYSKLNVQKSNWEAGNTFTCSVLHEGLHNHHTEKSLSHSPGK light: NIVLTQSPASLAVSLGQRATISCRASESVDSYGNSFMHWYQQKSGQPPKLLIYLASNLESGVPARFSGSGSRTDFTLTIDPVEADDAATYYCQQNNEDPLTFGAGTKLELKRADAAPTVSIFPPSSEQLTSGGASVVCFLNNFYPKDINVKWKIDGSERQNGVLNSWTDQDSKDSTYSMSSTLTLTKDEYERHNSYTCEATHKTSTSPIVKSFNRNEC", "values": [{"measurement": "Kd", "setting": "[3]", "value": 6, "unit": "nM"}, {"measurement": "koff", "setting": "[3]", "value": 0.001, "unit": "s⁻¹"}, {"measurement": "kon", "setting": "[3]", "value": 167000, "unit": "M⁻¹ s⁻¹"}, {"measurement": "IC50 (read off the curve); IL-11 release by A549 cells in response to TGF-β1", "setting": "[4]", "value": "~0.1", "unit": "nM"}, {"measurement": "IC50 (read off the curve); IL-11 release by A549 cells in response to TGF-β1", "setting": "[5]", "value": "~0.2", "unit": "nM"}, {"measurement": "half-maximal inhibition of IL-11 release (EC50), A549 cells", "setting": "[1]", "value": "~0.1", "unit": "nM"}, {"measurement": "IC50 (read off the curve); IL-11 release by A549 cells in response to TGF-β1", "setting": "[2]", "value": "~0.2", "unit": "nM"}]}]}
